Data reported in US20050059588A1, “Peptides which generate antibodies resulting in lysis of pathologically adherent erythrocytes” (REGENTS OF THE UNIVERSITY OF CALIFORNIA, priority 2003, published 2005).

Key:
[1] = target: thrombospondin (TSP), immobilized (UniProt P07996); experiment: cytoadherence assay, IEs on immobilized TSP, mean and SD of triplicates
[2] = target: Partially purified CD36 (CD36 fraction) from human platelets, immobilized (human) (UniProt P16671); experiment: cytoadherence assay, IEs on immobilized CD36, mean and SD of triplicates
Partially purified CD36 (CD36 fraction) from human platelets, immobilized (human), sequence (P16671 2-472 limits assumed, form in doubt): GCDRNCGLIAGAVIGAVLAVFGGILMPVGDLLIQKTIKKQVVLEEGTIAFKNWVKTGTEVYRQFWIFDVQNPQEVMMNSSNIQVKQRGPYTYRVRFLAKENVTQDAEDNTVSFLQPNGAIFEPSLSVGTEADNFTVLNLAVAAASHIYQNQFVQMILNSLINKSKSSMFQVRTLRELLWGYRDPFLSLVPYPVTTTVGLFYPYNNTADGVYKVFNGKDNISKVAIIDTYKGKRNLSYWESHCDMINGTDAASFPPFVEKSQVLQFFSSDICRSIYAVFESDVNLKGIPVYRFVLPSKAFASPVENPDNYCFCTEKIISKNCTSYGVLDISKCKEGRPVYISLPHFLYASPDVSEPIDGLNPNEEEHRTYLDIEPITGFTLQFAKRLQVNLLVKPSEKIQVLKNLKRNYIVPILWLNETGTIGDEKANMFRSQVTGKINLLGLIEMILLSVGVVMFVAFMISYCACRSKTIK

thrombospondin (TSP), immobilized, sequence (P07996 19-1170 limits assumed): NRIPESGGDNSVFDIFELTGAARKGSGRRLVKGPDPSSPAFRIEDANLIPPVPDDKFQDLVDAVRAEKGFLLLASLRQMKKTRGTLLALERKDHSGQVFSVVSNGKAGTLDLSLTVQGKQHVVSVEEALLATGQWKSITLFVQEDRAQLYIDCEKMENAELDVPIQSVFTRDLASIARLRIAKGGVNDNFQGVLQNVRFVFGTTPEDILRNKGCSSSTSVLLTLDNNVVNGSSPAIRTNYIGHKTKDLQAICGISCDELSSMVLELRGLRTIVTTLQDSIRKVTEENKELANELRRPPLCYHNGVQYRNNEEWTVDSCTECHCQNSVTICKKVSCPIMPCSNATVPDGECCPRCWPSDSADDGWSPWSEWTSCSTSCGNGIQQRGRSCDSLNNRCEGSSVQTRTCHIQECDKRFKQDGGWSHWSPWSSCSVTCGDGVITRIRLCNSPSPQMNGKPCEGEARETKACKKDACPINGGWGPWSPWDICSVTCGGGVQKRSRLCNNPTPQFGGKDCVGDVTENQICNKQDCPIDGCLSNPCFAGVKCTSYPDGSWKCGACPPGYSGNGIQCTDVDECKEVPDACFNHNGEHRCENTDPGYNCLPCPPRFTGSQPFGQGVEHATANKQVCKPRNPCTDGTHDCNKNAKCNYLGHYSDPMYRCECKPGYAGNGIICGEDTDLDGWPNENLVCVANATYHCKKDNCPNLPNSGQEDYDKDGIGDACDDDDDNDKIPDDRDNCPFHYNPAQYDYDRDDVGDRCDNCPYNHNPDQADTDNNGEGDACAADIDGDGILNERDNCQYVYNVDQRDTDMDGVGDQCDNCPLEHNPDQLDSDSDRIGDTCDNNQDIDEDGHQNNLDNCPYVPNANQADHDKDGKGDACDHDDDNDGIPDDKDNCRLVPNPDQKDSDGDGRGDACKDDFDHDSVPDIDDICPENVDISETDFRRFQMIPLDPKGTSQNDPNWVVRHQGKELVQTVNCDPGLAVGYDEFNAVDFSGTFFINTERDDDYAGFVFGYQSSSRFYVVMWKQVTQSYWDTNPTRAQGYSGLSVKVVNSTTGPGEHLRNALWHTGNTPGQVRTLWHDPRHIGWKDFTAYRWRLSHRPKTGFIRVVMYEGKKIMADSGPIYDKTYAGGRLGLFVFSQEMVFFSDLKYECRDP

Substance: Chymotrypsin cleaved AE1 on infected erythrocytes (from UniProt P02730 1-911)
- percentage of bound IEs/mm^2 as compared to untreated cells [1]: 81%
- percentage of bound IEs/mm^2 as compared to untreated cells [2]: 10.2%
